Patent US20260078162A1

Legend:
[1] = biological target: BCMA-CAR with a CD3zeta signaling motif on CAR-Jurkat cells; test: cell-based or functional assay
[2] = biological target: anti-CD19 chimeric antigen receptor (CAR) on Jurkat NFAT-GFP cells; test: cell-based or functional assay

IC50 of inhibition of BCMA-CAR-Jurkat cell activation (CD69) by NCI-H929 cells [1] | IC50 of inhibition of CAR-Jurkat activation (NFAT-GFP) by K562 cells [2] | NFAT-GFP downregulated at the maximum concentration tested [2] | Substance
36 nM | – | – | BCMAwt-Fc fusion protein (pDP39-BCMA ECD-FC)
– | 200 nM | 30% | CD19 wt-Fc (pDP10 CD19-WT FC) (Fc fusion)
